Measurements from patent US20160122742A1 (published 2016).
Blank lines part the entries; values can stand above or below the molecule they belong to.

Columns and labels:
Flag tagged ORC5 = target: T1, Flag tagged ORC5 (UniProt O43913)
T1 sequence: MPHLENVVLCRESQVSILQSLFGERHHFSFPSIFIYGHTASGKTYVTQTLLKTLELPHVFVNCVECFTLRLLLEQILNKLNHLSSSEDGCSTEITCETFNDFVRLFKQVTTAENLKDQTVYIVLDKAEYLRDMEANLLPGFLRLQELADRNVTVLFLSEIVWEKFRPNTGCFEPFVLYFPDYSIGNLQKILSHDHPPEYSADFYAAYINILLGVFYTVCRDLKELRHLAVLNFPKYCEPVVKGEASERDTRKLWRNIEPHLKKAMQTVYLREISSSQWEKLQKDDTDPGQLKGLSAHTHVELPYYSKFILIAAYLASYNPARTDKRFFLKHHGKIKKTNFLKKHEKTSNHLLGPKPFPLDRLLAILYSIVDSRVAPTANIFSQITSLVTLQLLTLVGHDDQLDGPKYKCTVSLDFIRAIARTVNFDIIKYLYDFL

[1] = target: T2, Flag tagged ORC1 (N-terminal Flag, pCS2-Flag) (human, UniProt Q13415 1-861); test: anti-Flag co-immunoprecipitation from U2OS cells, western blot with anti-Myc
T2 construct: Transiently expressed in U2OS cells; also called Flag-ORC1
T2 sequence: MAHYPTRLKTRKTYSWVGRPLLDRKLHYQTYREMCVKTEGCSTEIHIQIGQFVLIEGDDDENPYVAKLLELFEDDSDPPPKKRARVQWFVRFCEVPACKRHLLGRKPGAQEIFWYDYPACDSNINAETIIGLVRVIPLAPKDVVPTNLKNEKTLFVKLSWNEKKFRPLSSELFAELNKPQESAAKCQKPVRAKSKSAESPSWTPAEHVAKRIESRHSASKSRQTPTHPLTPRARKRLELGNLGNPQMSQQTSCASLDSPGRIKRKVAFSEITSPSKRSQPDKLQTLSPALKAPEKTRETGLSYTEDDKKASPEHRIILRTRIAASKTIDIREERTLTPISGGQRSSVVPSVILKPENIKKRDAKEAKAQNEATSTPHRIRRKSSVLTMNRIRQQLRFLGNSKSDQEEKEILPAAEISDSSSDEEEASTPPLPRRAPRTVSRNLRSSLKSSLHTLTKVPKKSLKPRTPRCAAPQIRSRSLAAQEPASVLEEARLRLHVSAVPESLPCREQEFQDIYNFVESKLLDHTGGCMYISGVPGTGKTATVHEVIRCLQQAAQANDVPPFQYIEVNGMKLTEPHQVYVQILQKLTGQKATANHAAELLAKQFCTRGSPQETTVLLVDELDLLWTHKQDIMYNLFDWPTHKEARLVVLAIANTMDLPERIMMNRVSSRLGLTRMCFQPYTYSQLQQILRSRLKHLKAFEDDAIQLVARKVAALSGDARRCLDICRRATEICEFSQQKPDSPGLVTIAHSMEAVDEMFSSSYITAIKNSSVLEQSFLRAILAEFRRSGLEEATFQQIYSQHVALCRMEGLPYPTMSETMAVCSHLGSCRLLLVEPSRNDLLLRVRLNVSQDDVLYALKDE
Protocol: For cell lysis, immunoprecipitation and western blotting were performed following standard methods. Briefly, cells were lysed in TK300 lysis buffer (20 mM Tris-HCl pH 7.9; 300 mM KCl, 5 mM MgCl2, 10% glycerol; 0.5% NP-40 plus protease inhibitors cocktail) on ice for 30 min. The protein concentration of the clarified lysates was estimated using the BCA method (Pierce). For immunoprecipitation experiments, equivalent amounts of protein samples were incubated at 4° C. with anti-Flag coupled agarose beads (Sigma Aldrich) for 4 h. After extensive washing with TK300 lysis buffer, bound proteins were eluted in boiling Laemmli buffer. Samples were runs on pre-cast gradient gel (NuPage Novex, Invitrogen and Mini-PROTEAN TGX, Biorad) and transferred to nitrocellulose membrane.
U20S cells were transiently transfected with plasmids coding for Myc-tagged WT Obi1 or mutated Obi1, and also co-transfected with plasmids coding for Flag-ORC1. 48 hours post-transfection, cells were lyzed and the soluble fraction was subjected to an anti-Flag immunoprecipitation (IP:Flag—FIG. 24B). Ectopic proteins were detected by western blotting. Under these conditions, specific Obi1/ORC1 complex is detected in the immunoprecipitate. In contrast, no association is observed between ORC1 and the mutated Obi1 protein (FIG. 24B).

[2] = target: T3, human ORC1 with C-terminal Flag-HA tag (human, UniProt Q13415 1-861); test: TAP-TAG (tandem Flag/HA immunoprecipitation from HeLa S3 nuclear extract), silver staining and mass spectrometry
T3 construct: Stably expressed in HeLa S3 cells; also called ORC1 FLAG-HA; FLAG-HA tagged ORC1; not shown: in-frame C-terminal Flag-HA tag of pOZ-FH-C
T3 sequence: T2 sequence
Protocol: The beads were washed twice with 1 mL of HA-IP Buffer (150 mM KCl; 20 mM Tris pH 7.5 0.05% NP40; 0.1% Tween; 10% Glycerol; 5 mM MgCl₂; 1 mM DTT and 10 mM PMSF). After the last centrifugation, beads were resuspended in HA-IP Buffer (1 vol of Beads). Extracts were incubated with Flag beads for 4 h with agitation at 4 C. Beads were pelleted (3 min at 3000 rpm 4° C.). Beads were washed 5 times with HA IP Buffer: Beads are pelleted (3K 3 min 4° C.) and the supernatant discarded. Complexes were eluted from the beads by incubating in 3 beads volume of HA IP Buffer supplemented with Flag peptide (200 μg/mL, Sigma) for 1 hour at 4 C with agitation. The supernatant was kept on ice and a second elution was conducted. The eluates were pooled and subjected to an anti-HA immunoprecipitation. Before, anti-HA coupled agarose beads (SantaCruz Biotechnology) were washed with glycine buffer as described above. 10 μL of beads was used per IP. Flag eluates were incubated with anti-HA beads for 2 hours at 4 C with agitation. Beads were pelleted (3 min at 3000 rpm 4° C.). Beads were washed 5 times with HA IP Buffer: Beads are pelleted (3K 3 min 4° C.) and the supernatant discarded. Complexes were eluted from the beads by incubating in 3 beads volume of HA IP Buffer supplemented with HA peptide (400 μg/mL, Roche) for 1 hour at 4 C with agitation. The supernatant was keep on ice and a second elution was conducted. […]

Flag tagged ORC5, O43913 = target: T4, Flag tagged ORC5, O43913
T4 chain: T1 sequence

Flag tagged ORC3, Q9UBD5 = target: T5, Flag tagged ORC3, Q9UBD5
T5 chain: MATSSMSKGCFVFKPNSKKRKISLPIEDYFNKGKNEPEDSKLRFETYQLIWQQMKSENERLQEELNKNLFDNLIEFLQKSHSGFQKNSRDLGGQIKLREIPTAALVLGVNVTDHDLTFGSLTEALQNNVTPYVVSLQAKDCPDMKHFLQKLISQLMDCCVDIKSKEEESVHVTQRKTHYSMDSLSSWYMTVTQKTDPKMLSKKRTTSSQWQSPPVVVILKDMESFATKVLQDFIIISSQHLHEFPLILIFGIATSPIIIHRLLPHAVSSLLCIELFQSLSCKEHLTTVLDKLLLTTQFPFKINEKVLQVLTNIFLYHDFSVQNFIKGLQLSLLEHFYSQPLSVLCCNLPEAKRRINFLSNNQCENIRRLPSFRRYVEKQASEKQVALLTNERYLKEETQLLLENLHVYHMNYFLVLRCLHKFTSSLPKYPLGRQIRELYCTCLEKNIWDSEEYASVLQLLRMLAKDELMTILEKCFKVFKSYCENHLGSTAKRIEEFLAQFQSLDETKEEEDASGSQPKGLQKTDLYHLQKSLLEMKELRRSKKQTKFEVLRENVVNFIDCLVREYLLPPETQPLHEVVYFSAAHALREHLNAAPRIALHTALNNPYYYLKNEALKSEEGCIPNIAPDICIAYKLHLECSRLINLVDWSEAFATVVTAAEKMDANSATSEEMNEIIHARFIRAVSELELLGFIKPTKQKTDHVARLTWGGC

[3] = target: T6, Flag tagged ORC1 (N-terminal Flag, pCS2-Flag)
T6 chain: T2 sequence

Molecule: Xenopus Myc6-tagged Obi1 WT
ubiquitination of Flag-ORC5 (high-molecular weight ubiquitin adducts after anti-Flag IP) (Flag tagged ORC5): both human and xenopus Obi1, sharing 35% identity of their amino acid sequence, are able to ubiquitinate ORC5

binding result [1]: no binding
B1: Myc-tagged mutated Obi1 (truncated Obi1 protein of the Meier-Gorlin patient) (other)
chain: MAQTVQNVTLSLTLPITCHICLGKVRQPVICINNHVFCSICIDLWLKNNSQCPACRVPITPENPCKEIIGGTSESEPMLSHTVRKHLRKTRLELLHKEYEDEIDCLQKEVEELKSKNLSLESQIKTILDPLTLVQGNQNEDKHLVTDNPSKINPETVAEWKKKLRTANEIYEKVKDDVDKLKEANKKLKLENGGLVRENLRLKAEVDNRSPQKFGRFAVAALQSKVEQYERETNRLKKALERSDKYIEELESQVAQLKNSSEEKEAMNSICQTALSADGKGSKGSEEDVVSKNQGDSARKQPGSSTSSSSHLAKPSSSRLCDTSSARQESTSKADLNCSKNKDLYQEQVEVMLDVTDTSMDTYLEREWGNKPSDCVPYKDEELYDLPAPCTPLSLSCLQLSTPENRESSVVQAGGSKKHSNHLRKLVFDDFCDSSNVSNKDSSEDDISRSENEKKSVFFFPKDRILGLLFHKLCPKLRF
notes: also called C.1370_1371delAA,P.GLU457VALFSX24; not shown: Myc tag

binding result [2]: binds
B2: ORC Ubiquitin-ligase 1 (OBI1), human, endogenous protein of the cells (enzyme)
chain: MAQTVQNVTLSLTLPITCHICLGKVRQPVICINNHVFCSICIDLWLKNNSQCPACRVPITPENPCKEIIGGTSESEPMLSHTVRKHLRKTRLELLHKEYEDEIDCLQKEVEELKSKNLSLESQIKTILDPLTLVQGNQNEDKHLVTDNPSKINPETVAEWKKKLRTANEIYEKVKDDVDKLKEANKKLKLENGGLVRENLRLKAEVDNRSPQKFGRFAVAALQSKVEQYERETNRLKKALERSDKYIEELESQVAQLKNSSEEKEAMNSICQTALSADGKGSKGSEEDVVSKNQGDSARKQPGSSTSSSSHLAKPSSSRLCDTSSARQESTSKADLNCSKNKDLYQEQVEVMLDVTDTSMDTYLEREWGNKPSDCVPYKDEELYDLPAPCTPLSLSCLQLSTPENRESSVVQAGGSKKHSNHLRKLVFDDFCDSSNVSNKDSSEDDISRSENEKKSECFSSPKTGFWDCCSTSYAQNLDFESSEGNTIANSVGEISSKLSEKSGLCLSKRLNSIRSFEMNRTRTSSEASMDAAYLDKISELDSMMSESDNSKSPCNNGFKSLDLDGLSKSSQGSEFLEEPDKLEEKTELNLSKGSLTNDQLENGSEWKPTSFFLLSPSDQEMNEDFSLHSSSCPVTNEIKPPSCLFQTEFSQGILLSSSHRLFEDQRFGSSLFKMSSEMHSLHNHLQSPWSTSFVPEKRNKNVNQSTKRKIQSSLSSASPSKATKS
notes: Untagged endogenous Obi1 of HeLa S3 or U2OS cells, co-purified with tagged baits or acting on transfected ORC subunits; also called RNF219; Obi1/RFN219
poly-ubiquitination of Flag ORC5 after siRNA knockdown of Obi1 (Flag tagged ORC5, O43913): cells that does not express Obi1 are not able to poly-ubiquitinate either ORC3 or ORC5
ubiquitination of Flag tagged ORC subunits (HA-ubiquitin adducts after anti-Flag IP) (Flag tagged ORC5, O43913): OC1, ORC3 and ORC5 are ubiquitinated in presence of Obi1, and in particular that ORC3 and ORC5 show strong polyubiquitylation
poly-ubiquitination of Flag ORC3 after siRNA knockdown of Obi1 (Flag tagged ORC3, Q9UBD5): cells that does not express Obi1 are not able to poly-ubiquitinate either ORC3 or ORC5
ubiquitination of Flag tagged ORC subunits (HA-ubiquitin adducts after anti-Flag IP) (Flag tagged ORC3, Q9UBD5): OC1, ORC3 and ORC5 are ubiquitinated in presence of Obi1, and in particular that ORC3 and ORC5 show strong polyubiquitylation
ubiquitination of Flag tagged ORC subunits (HA-ubiquitin adducts after anti-Flag IP) [3]: OC1, ORC3 and ORC5 are ubiquitinated in presence of Obi1

B3: human Myc6-tagged Obi1 WT (protein)
chain: B2 chain
polyubiquitination of Flag-ORC5 (HA-ubiquitin adducts after anti-Flag IP) (Flag tagged ORC5, O43913): only the full length Obi1 protein is able to polyubiquitinate ORC5
ubiquitination of Flag-ORC5 (high-molecular weight ubiquitin adducts after anti-Flag IP) (Flag tagged ORC5, O43913): both human and xenopus Obi1, sharing 35% identity of their amino acid sequence, are able to ubiquitinate ORC5
